Consider three substances from paper PMC10159993.

In test [1] the target is H2AK119-biotinylated 185 bp nucleosome. In words: FRET or BRET. On the technique in general: In BRET a luciferase serves as donor, and the signal depends on an acceptor being close.
The target in another test is KDM2A(2–685) (human) (UniProt Q9Y2K7). In words: FRET or BRET.

Substance “KDM2A(2–685) R152E (from UniProt Q9Y2K7 2-685) (domain or fragment)” came in with a fold reduction of binding affinity against wild-type KDM2A in test [1] of 4 fold.

On to “unmodified wild-type 147 bp nucleosome (complex)”, for which the ratio of IC50 (147 bp over 185 bp nucleosome as competitor) in the test with KDM2A(2–685) (human) stood at 10 fold. Substance “KDM2A(2–685) K99E/R105E/R128E/R152E (from UniProt Q9Y2K7 2-685) (domain or fragment)” gave a fold reduction of binding affinity against wild-type KDM2A in test [1] of 20 fold.
